Columns and labels:
cMet-Fc fusion protein [1] = target: T1, cMet-Fc fusion protein (human, UniProt P08581 25-932); test: phage ELISA on cMet-Fc, competitor HGF 100 ng/mL
T1 construct: extracellular domain; also called soluble cMet-Fc fusion protein; cMet-Fc (R&D Systems); not shown: Fc part, not described
Experimental: (§1) These assays were conducted using the peptide-displaying phage discovered from the initial selection and screening campaigns using the first generation peptide libraries. Briefly, 96-well plates were coated overnight at 4 C with 0.5 μg/mL of cMet-Fc fusion protein or TRAIL-Fc fusion protein (background). The plates were blocked for 2 hours at 37 C with 3% BSA in PBST. […] This was followed by an addition of 30 μL of peptide-displaying phage overnight culture to each well. The plates were incubated for 2 hours at room temperature, washed with PBST and cMet-binding peptide-displaying phage was detected using an HRP-conjugated anti-M13 antibody.

cMet-Fc fusion protein [2] = target: T1, cMet-Fc fusion protein; test: phage protein ELISA, cMet-Fc vs TRAIL-Fc
Experimental: Protein phage ELISAs using peptide-displaying phage isolates from the various selection campaigns were performed to determine specificity of the peptides for cMet versus an unrelated Fc-fusion protein (TRAIL-Fc). Briefly, 384-well plates were coated overnight at 4 C with 0.5 μg/mL of cMet-Fc fusion protein or TRAIL-Fc fusion protein (background). The plates were blocked for 2 hours 37 C with 3% (w/v) BSA in PBS containing 0.05% (v/v) Tween-20 (PBST). The plates were washed with PBST and 100 μL of peptide-displaying phage were added to each well. The plates were incubated for 2 hours at room temperature and washed with PBST. cMet-binding peptide-displaying phage were detected using an HRP-conjugated anti-M13 antibody.

human cMet on 3T3 cells = target: T2, human cMet on 3T3 cells (human, UniProt P08581 25-1390); test: phage whole cell ELISA, 3T3 human cMet vs 3T3
T2 construct: whole, on cells; also called cell surface-expressed human cMet
Experimental: Whole cell ELISAs were performed using 3T3 cells that over-express human cMet. […] Briefly, 96-well plates were seeded with 10⁵ cells per well. The plates were centrifuged for 5 minutes at 1600 rpm to pellet the cells. The resulting cell layer was fixed with 0.1% (v/v) glutaraldehyde for 12 minutes at 37 C. […] Peptide-displaying phage also were blocked in the above solution for 1 hour at 37 C. 100 μL of blocked phage was then added to each well and the plates were incubated for 1 hour at room temperature. The plates were washed with PBST. cMet-binding peptide-displaying phage were detected using an HRP-conjugated anti-M13 antibody.

cMet-Fc fusion protein [3] = target: T1, cMet-Fc fusion protein; test: phage ELISA on cMet-Fc, competitor HGF 500 ng/mL
Experimental: as §1

T1 sequence (P08581 25-932): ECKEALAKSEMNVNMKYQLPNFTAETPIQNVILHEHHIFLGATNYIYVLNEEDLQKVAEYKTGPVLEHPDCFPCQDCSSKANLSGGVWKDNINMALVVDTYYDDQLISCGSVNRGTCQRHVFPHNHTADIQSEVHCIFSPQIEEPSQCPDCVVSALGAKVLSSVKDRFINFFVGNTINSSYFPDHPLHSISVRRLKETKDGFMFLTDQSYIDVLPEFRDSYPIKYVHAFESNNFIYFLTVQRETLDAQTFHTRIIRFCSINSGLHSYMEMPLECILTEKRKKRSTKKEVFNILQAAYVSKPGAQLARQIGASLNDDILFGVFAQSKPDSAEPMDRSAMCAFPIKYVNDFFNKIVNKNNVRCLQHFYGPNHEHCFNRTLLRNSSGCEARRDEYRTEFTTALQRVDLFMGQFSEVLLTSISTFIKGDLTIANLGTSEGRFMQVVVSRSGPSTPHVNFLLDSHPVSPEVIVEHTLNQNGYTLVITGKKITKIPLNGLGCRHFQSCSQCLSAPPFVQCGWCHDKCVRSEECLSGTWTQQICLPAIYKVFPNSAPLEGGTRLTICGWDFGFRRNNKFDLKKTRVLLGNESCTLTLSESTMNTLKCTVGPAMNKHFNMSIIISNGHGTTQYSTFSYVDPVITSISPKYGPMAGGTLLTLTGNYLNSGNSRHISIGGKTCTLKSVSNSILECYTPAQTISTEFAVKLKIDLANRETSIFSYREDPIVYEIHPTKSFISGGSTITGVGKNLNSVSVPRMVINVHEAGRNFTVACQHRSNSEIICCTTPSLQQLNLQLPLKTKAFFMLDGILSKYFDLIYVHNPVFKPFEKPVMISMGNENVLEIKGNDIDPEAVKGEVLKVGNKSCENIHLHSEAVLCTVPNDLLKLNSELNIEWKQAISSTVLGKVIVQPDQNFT
T2 sequence (P08581 25-1390): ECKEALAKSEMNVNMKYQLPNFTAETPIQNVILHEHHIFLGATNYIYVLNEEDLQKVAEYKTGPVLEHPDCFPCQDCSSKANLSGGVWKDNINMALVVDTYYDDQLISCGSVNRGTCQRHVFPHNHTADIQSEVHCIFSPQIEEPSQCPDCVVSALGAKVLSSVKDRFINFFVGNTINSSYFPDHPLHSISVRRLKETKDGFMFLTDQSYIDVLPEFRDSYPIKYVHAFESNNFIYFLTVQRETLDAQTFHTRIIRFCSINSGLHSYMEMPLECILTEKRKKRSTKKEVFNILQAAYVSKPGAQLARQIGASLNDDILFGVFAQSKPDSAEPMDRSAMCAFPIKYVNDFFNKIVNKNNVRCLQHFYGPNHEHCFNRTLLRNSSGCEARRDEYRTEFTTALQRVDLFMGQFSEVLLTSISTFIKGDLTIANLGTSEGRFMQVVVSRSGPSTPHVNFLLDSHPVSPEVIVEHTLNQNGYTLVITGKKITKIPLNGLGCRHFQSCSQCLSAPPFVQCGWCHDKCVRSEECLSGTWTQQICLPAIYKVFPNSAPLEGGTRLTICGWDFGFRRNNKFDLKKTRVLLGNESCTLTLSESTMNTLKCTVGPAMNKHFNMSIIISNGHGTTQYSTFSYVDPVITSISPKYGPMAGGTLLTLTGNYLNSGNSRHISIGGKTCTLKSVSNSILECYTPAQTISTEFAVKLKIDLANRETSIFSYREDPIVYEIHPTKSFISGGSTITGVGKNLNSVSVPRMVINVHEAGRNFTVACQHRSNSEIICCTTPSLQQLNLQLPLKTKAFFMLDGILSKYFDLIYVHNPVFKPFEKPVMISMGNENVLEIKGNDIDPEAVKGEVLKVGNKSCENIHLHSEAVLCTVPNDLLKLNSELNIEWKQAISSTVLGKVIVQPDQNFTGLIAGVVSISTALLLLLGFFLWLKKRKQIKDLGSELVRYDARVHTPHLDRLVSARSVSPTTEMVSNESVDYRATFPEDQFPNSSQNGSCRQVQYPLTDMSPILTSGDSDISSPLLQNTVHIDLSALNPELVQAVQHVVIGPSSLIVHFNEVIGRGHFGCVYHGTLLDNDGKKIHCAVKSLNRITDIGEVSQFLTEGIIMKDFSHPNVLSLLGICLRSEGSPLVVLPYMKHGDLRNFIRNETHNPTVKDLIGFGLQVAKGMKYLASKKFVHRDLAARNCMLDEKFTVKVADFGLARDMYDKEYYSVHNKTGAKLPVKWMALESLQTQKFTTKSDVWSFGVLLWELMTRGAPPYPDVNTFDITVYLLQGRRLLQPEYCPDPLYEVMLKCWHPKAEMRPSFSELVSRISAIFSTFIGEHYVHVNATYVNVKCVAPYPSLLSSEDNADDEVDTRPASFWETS

Binder	% of binding in the absence of HGF (cMet-Fc fusion protein [1]) [%]	fold over background (cMet-Fc fusion protein [2]) [fold]	fold over background (human cMet on 3T3 cells) [fold]	other results
AGETVCYWLNGWFCVDDGT (on M13 phage) [peptide-displaying phage 274-B07]	343			
AGFWDCGWMMQDCHMHGT (on M13 phage) [peptide-displaying phage 470-C02]		36.9		
AGLPKCSGPPWFSCYYGGT (on M13 phage) [peptide-displaying phage 545-A09]			1.36	
GSHHTCLDGFAGWRCTEVAP (on M13 phage) [peptide-displaying phage 546-E02]		40.4		
GDLLVCKFDDKFWTETCEWADP (on M13 phage) [peptide-displaying phage 549-G05]			14.5	
AQFDRYWHFAWMDVSFSSGQSG (on M13 phage) [peptide-displaying phage 92-B05]			1.23	
AGYSVCKGYPSFECAFFGT (on M13 phage) [peptide-displaying phage 336-D07]			14.3	
GSGDPCSPGPSINGHCSVMAP (on M13 phage) [peptide-displaying phage 453-A05]	514			
AQDPGFSKHSMGHGYPSKMNWG (on M13 phage) [peptide-displaying phage 115-G02]	57			
GSMLGCLFEHQNKYDCYVLAP (on M13 phage) [peptide-displaying phage 443-D04]		3		
AGETFCSGWPTFECMQWGT (on M13 phage) [peptide-displaying phage 547-H03]				% of binding in the absence of HGF (cMet-Fc fusion protein [3]): 43%
AGQFYCSGPPTFQCIMIGT [peptide-displaying phage 550-F11]	58	1.4	1.23	% of binding in the absence of HGF (cMet-Fc fusion protein [3]): 23%

— patent US20110311446A1 (DYAX, published 2011)
